{
  "source": "the supplement of paper PMC10126150",
  "note": "± gives the standard deviation of the averaged measurements.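 Also: ATP exposure 15 min at 22 °C before imaging.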",
  "data": [
    {"tested_on": "ATP", "test": "switch fluorescence ratio, 500 uM ATP over buffer (Cy3 cluster intensity, sum of 5 cycles each) (fold (ratio)); higher = stronger signal-on switching upon ATP binding; sequences stand for … in TCGTCGGCAGCGTCAGATGTGTATAAGAGACAGTTTTTTTTTTTTTTTTTTTTTTTTT…TC", "conditions": "aptamer strand: ATP DNA aptamer (quencher-CACCTGGGGGAGTATTGCGGAGGAAGG + anchor), 100 nM annealed; ATP concentration: 500 uM", "outline": "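Cy3-labelled switching-strand clusters on a modified Illumina MiSeq flow-cell were annealed to 100 nM quencher-labelled ATP aptamer, imaged in selection buffer, then imaged after 15 min with 500 uM ATP at 22 °C. Five buffer/ATP cycles ran, with NaOH stripping and re-annealing between them. The fluorescence ratio is summed target-cycle over summed buffer-cycle Cy3 intensity per cluster, averaged per switch-domain sequence. Clusters outside 100-1000 RFU were excluded.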", "values": [
      {"sequence": "AGGTCAGTAG", "switch fluorescence ratio": "1 ± 0.024"},
      {"sequence": "CGTATTTCTG", "switch fluorescence ratio": "0.938 ± 0.072"},
      {"sequence": "TCAATACGTT", "switch fluorescence ratio": "1.09 ± 0.016"},
      {"sequence": "TATCTGTCAA", "switch fluorescence ratio": "1.11 ± 0.032"},
      {"sequence": "GCCTTTTTTT", "switch fluorescence ratio": "0.991 ± 0.029"},
      {"sequence": "ATAGAAGGGT", "switch fluorescence ratio": "1.01 ± 0.026"},
      {"sequence": "TCATTGGTAG", "switch fluorescence ratio": "1.001 ± 0.0054"},
      {"sequence": "GAGGTAAGAT", "switch fluorescence ratio": "1.02 ± 0.032"},
      {"sequence": "ACGCCACTGT", "switch fluorescence ratio": "1.71 ± 0.038"},
      {"sequence": "GATCATGCGG", "switch fluorescence ratio": "0.9854 ± 0.0089"},
      {"sequence": "TTTGGGAATT", "switch fluorescence ratio": "1.03 ± 0.035"},
      {"sequence": "GGGGCTGAGT", "switch fluorescence ratio": "0.954 ± 0.039"},
      {"sequence": "GTGTGTTTGT", "switch fluorescence ratio": "0.955 ± 0.038"},
      {"sequence": "GGCGGTAAAG", "switch fluorescence ratio": "0.992 ± 0.037"},
      {"sequence": "CCCGCTAGTG", "switch fluorescence ratio": "1.54 ± 0.12"},
      {"sequence": "CCGTCAGAGT", "switch fluorescence ratio": "1.09 ± 0.014"},
      {"sequence": "TTTGAGGGCG", "switch fluorescence ratio": "1.01 ± 0.066"},
      {"sequence": "AAACTGATGA", "switch fluorescence ratio": "1.06 ± 0.024"},
      {"sequence": "AGTTACGGAC", "switch fluorescence ratio": "1.36 ± 0.017"},
      {"sequence": "CCAATTTGGG", "switch fluorescence ratio": "0.964 ± 0.029"},
      {"sequence": "TTTAAGGGGT", "switch fluorescence ratio": "0.991 ± 0.051"},
      {"sequence": "TTATTCTTGT", "switch fluorescence ratio": "1 ± 0.017"},
      {"sequence": "CGTGGATTTA", "switch fluorescence ratio": "0.983 ± 0.011"},
      {"sequence": "CCACGCCAGA", "switch fluorescence ratio": "1.28 ± 0.052"},
      {"sequence": "CCATGACTCT", "switch fluorescence ratio": "0.983 ± 0.016"},
      {"sequence": "ACTTAAAGTC", "switch fluorescence ratio": "0.973 ± 0.029"},
      {"sequence": "GTCGCTTAGT", "switch fluorescence ratio": "0.973 ± 0.018"},
      {"sequence": "TATACAATTG", "switch fluorescence ratio": "1.01 ± 0.017"},
      {"sequence": "GGTGTGGGGT", "switch fluorescence ratio": "0.986 ± 0.02"},
      {"sequence": "ACACCGGGGG", "switch fluorescence ratio": "1.13 ± 0.17"},
      {"sequence": "CTAAGTATGG", "switch fluorescence ratio": "0.9938 ± 0.0096"},
      {"sequence": "TTAATCTAGC", "switch fluorescence ratio": "0.991 ± 0.021"},
      {"sequence": "GCATTATTCG", "switch fluorescence ratio": "1.059 ± 0.0079"},
      {"sequence": "TACTATTTTA", "switch fluorescence ratio": "1 ± 0.016"},
      {"sequence": "ACATGAAGGT", "switch fluorescence ratio": "1.006 ± 0.0035"},
      {"sequence": "TTGGCTCGCA", "switch fluorescence ratio": "1.11 ± 0.15"},
      {"sequence": "TGTGGTATTT", "switch fluorescence ratio": "0.972 ± 0.027"},
      {"sequence": "TAGATTGTCT", "switch fluorescence ratio": "1.01 ± 0.03"},
      {"sequence": "AGGGGGGAC", "switch fluorescence ratio": "0.9875 ± 0.0048"},
      {"sequence": "TATGCCAGCG", "switch fluorescence ratio": "1.01 ± 0.025"},
      {"sequence": "TAGCAGTCGA", "switch fluorescence ratio": "1.09 ± 0.058"},
      {"sequence": "CGGGACGGCA", "switch fluorescence ratio": "1.01 ± 0.017"},
      {"sequence": "TAGGCGGTTT", "switch fluorescence ratio": "0.9641 ± 0.00067"},
      {"sequence": "GCGATCGTTT", "switch fluorescence ratio": "0.992 ± 0.011"},
      {"sequence": "CCTGGCCTGC", "switch fluorescence ratio": "1.078 ± 0.01"},
      {"sequence": "ATTTAAGAAG", "switch fluorescence ratio": "0.99 ± 0.032"},
      {"sequence": "GGATTGGGAC", "switch fluorescence ratio": "1.024 ± 0.0016"},
      {"sequence": "GTATCATGCC", "switch fluorescence ratio": "1.01 ± 0.011"},
      {"sequence": "GGCAGATTCC", "switch fluorescence ratio": "1.05 ± 0.019"},
      {"sequence": "TCGGTTGTG", "switch fluorescence ratio": "0.9644 ± 0.0092"},
      {"sequence": "ACGTCTACTC", "switch fluorescence ratio": "1.37 ± 0.1"},
      {"sequence": "TTAGGGGGTC", "switch fluorescence ratio": "0.998 ± 0.036"},
      {"sequence": "AAAGGGTTCT", "switch fluorescence ratio": "0.994 ± 0.04"},
      {"sequence": "GCTGGGCGAT", "switch fluorescence ratio": "0.961 ± 0.032"},
      {"sequence": "GATTCATGTT", "switch fluorescence ratio": "0.998 ± 0.013"},
      {"sequence": "TTCTTTTTGC", "switch fluorescence ratio": "0.9678 ± 0.0084"},
      {"sequence": "TAAGATGTCA", "switch fluorescence ratio": "1.02 ± 0.034"},
      {"sequence": "GCGTGGGGGG", "switch fluorescence ratio": "1 ± 0.016"},
      {"sequence": "GGGTTAACGG", "switch fluorescence ratio": "1 ± 0.018"},
      {"sequence": "ATGGTGTGCG", "switch fluorescence ratio": "1.01 ± 0.025"},
      {"sequence": "ATAAAAGAAG", "switch fluorescence ratio": "1.01 ± 0.041"},
      {"sequence": "TGGCTAAAAT", "switch fluorescence ratio": "0.998 ± 0.023"},
      {"sequence": "ATATTTTTGG", "switch fluorescence ratio": "0.993 ± 0.011"},
      {"sequence": "GGGGCAAAGA", "switch fluorescence ratio": "1.02 ± 0.027"},
      {"sequence": "ACTTAACCGG", "switch fluorescence ratio": "1.05 ± 0.016"},
      {"sequence": "ACTGATAGGC", "switch fluorescence ratio": "1.18 ± 0.23"},
      {"sequence": "ACGGTATTTT", "switch fluorescence ratio": "1.09 ± 0.052"},
      {"sequence": "TGATTGTGCA", "switch fluorescence ratio": "0.989 ± 0.035"},
      {"sequence": "ATCAATGTTC", "switch fluorescence ratio": "1.07 ± 0.094"},
      {"sequence": "TATTCTAAAT", "switch fluorescence ratio": "1.01 ± 0.016"},
      {"sequence": "ACCTGGTGTT", "switch fluorescence ratio": "1.23 ± 0.39"},
      {"sequence": "TATGGAATGT", "switch fluorescence ratio": "0.998 ± 0.0062"},
      {"sequence": "GGGAGCGCCG", "switch fluorescence ratio": "1.03 ± 0.039"},
      {"sequence": "AGGGGTATTC", "switch fluorescence ratio": "1.01 ± 0.049"},
      {"sequence": "AAACTAGGGG", "switch fluorescence ratio": "1.06 ± 0.016"},
      {"sequence": "TATGAGTAAG", "switch fluorescence ratio": "0.978 ± 0.027"},
      {"sequence": "GATGATTATC", "switch fluorescence ratio": "0.986 ± 0.022"},
      {"sequence": "CGATTGTCTG", "switch fluorescence ratio": "0.958 ± 0.02"},
      {"sequence": "TGAGAGAAGG", "switch fluorescence ratio": "1.01 ± 0.014"},
      {"sequence": "TTGACGTATA", "switch fluorescence ratio": "1.96 ± 1.2"},
      {"sequence": "ACTTTGGTGC", "switch fluorescence ratio": "1.03 ± 0.026"},
      {"sequence": "ATGTTGGGTT", "switch fluorescence ratio": "0.982 ± 0.031"},
      {"sequence": "TAACTATTCC", "switch fluorescence ratio": "1.23 ± 0.082"},
      {"sequence": "GAAATGAGAT", "switch fluorescence ratio": "0.975 ± 0.01"},
      {"sequence": "GGTTGACGAG", "switch fluorescence ratio": "0.986 ± 0.012"},
      {"sequence": "GGTGAGGTGC", "switch fluorescence ratio": "0.9995 ± 0.0084"},
      {"sequence": "ACTGATAGAG", "switch fluorescence ratio": "1.02 ± 0.065"},
      {"sequence": "TACAAGCCTA", "switch fluorescence ratio": "1.011 ± 0.0014"},
      {"sequence": "CGGTTTAGGG", "switch fluorescence ratio": "0.986 ± 0.026"},
      {"sequence": "CAGAGGATGC", "switch fluorescence ratio": "0.995 ± 0.0041"},
      {"sequence": "GAACGCGATT", "switch fluorescence ratio": "3.92 ± 1.3"},
      {"sequence": "GGGGTTGTTG", "switch fluorescence ratio": "0.988 ± 0.035"},
      {"sequence": "TCACGGGAAT", "switch fluorescence ratio": "1.02 ± 0.055"},
      {"sequence": "ACGGGTGTCC", "switch fluorescence ratio": "0.995 ± 0.066"},
      {"sequence": "GGGGGTTGAG", "switch fluorescence ratio": "1.03 ± 0.024"},
      {"sequence": "TCGGGGTATC", "switch fluorescence ratio": "1.03 ± 0.0046"},
      {"sequence": "GGATAAAGGT", "switch fluorescence ratio": "0.978 ± 0.018"},
      {"sequence": "GCGTCTATTA", "switch fluorescence ratio": "0.995 ± 0.012"},
      {"sequence": "AGGGCATTCA", "switch fluorescence ratio": "1.02 ± 0.046"},
      {"sequence": "CACGTGGGCA", "switch fluorescence ratio": "1.01 ± 0.048"}
    ]}
  ]
}
